Patent publication US20090176264A1

How the values were obtained:
BSA (control) (bovine) [1] = target: BSA (control) (bovine) (UniProt P02769); test: ELISA, BSA control wells, sFlt at 1800 ng/mL, detected with RD-1 + RD-2 anti-sFlt
BSA (control) (bovine) [2] = target: BSA (control) (bovine) (UniProt P02769); test: ELISA, BSA control wells, sFlt at 200 ng/mL, detected with RD-1 + RD-2 anti-sFlt
BSA (control) (bovine) [3] = target: BSA (control) (bovine) (UniProt P02769); test: ELISA, BSA control wells, sFlt at 600 ng/mL, detected with RD-1 + RD-2 anti-sFlt
BSA (control) (bovine) [4] = target: BSA (control) (bovine) (UniProt P02769); test: ELISA, BSA control wells, sFlt at 200 ng/mL, detected with RD-1 + RD-2 anti-sFlt; remark: listed apart in the source
BSA (control) (bovine) [5] = target: BSA (control) (bovine) (UniProt P02769); test: ELISA, BSA control wells, sFlt at 600 ng/mL, detected with RD-1 + RD-2 anti-sFlt; remark: listed apart in the source
BSA (control) (bovine) [6] = target: BSA (control) (bovine) (UniProt P02769); test: ELISA, BSA control wells, sFlt at 66.67 ng/mL, detected with RD-1 + RD-2 anti-sFlt
BSA (control) (bovine) [7] = target: BSA (control) (bovine) (UniProt P02769); test: as above; remark: listed apart in the source

Full length sFlt (soluble fms-like tyrosine kinase 1, sFlt-1), Scios Inc. Lot# 9225-89 (from UniProt P17948 27-656) (receptor), sequence (P17948 other isoform, or with tags, fused parts or gaps limits assumed): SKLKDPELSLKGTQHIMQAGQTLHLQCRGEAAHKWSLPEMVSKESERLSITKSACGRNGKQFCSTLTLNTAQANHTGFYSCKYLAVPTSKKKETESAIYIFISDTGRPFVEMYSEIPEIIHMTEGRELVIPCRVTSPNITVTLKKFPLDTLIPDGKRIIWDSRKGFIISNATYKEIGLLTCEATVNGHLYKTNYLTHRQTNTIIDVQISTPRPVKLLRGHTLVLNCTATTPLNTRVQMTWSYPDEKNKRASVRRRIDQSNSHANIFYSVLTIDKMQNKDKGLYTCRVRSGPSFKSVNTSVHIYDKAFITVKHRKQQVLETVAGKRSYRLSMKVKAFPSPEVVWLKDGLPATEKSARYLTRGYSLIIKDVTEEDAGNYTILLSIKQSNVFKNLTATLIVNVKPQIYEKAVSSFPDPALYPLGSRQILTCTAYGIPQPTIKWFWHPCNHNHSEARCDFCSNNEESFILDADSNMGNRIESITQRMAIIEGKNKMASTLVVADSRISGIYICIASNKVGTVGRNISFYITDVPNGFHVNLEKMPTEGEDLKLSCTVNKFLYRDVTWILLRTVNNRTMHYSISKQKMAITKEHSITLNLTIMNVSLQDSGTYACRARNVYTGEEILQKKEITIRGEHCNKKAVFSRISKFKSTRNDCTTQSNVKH
BSA (control) (bovine), sequence (P02769 25-607 limits assumed): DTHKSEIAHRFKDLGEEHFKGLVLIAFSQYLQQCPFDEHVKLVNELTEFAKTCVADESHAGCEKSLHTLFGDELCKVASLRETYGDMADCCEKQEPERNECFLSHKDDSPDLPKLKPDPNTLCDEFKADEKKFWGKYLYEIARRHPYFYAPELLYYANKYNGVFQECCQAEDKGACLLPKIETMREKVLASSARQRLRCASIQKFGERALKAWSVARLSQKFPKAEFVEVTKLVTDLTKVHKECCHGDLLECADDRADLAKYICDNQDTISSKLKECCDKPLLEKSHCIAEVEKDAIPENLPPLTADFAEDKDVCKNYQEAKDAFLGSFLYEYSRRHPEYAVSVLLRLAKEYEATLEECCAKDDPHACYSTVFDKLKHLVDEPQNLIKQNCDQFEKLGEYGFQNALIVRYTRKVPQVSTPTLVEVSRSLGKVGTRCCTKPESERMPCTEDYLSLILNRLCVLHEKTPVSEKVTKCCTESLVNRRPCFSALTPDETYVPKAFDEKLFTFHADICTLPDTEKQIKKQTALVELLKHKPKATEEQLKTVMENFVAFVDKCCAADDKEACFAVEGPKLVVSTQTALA
Full length sFlt (soluble fms-like tyrosine kinase 1, sFlt-1), Scios Inc. Lot# 9225-89 (from UniProt P17948 27-656), sequence (P17948 other isoform, or with tags, fused parts or gaps limits assumed): as the sequence (P17948 other isoform, or with tags, fused parts or gaps limits assumed) above

An OD at 492 nm (BSA (control) (bovine) [1]) of 0.004 OD was found for “Full length sFlt (soluble fms-like tyrosine kinase 1, sFlt-1), Scios Inc. Lot# 9225-89 (from UniProt P17948 27-656)” in this work.
An OD at 492 nm (BSA (control) (bovine) [2]) of 0.01 OD, an OD at 492 nm (BSA (control) (bovine) [3]) of 0.006 OD and an OD at 492 nm (BSA (control) (bovine) [4]) of 0.005 OD were found for “Full length sFlt (soluble fms-like tyrosine kinase 1, sFlt-1), Scios Inc. Lot# 9225-89 (from UniProt P17948 27-656) (receptor)” in this work. For the same substance, the OD at 492 nm (BSA (control) (bovine) [5]) was 0.008 OD, the OD at 492 nm (BSA (control) (bovine) [1]) was 0.009 OD and the OD at 492 nm (BSA (control) (bovine) [6]) was 0.02 OD. The OD at 492 nm (BSA (control) (bovine) [7]) was 0.003 OD.
